Assay results as given in PMC4381397, “The recently identified modifier of murine metastable epialleles, Rearranged L-Myc Fusion, is involved in maintaining epigenetic marks at CpG island shores and enhancers”.

B1: PP2 pentaprobe (ssDNA)
DNA: TATCTTACTTTAGTTTCATTTAATTGTGTTGTACTCTCCTCTGCGTTCACTTAGCTTAACTTGGTTTGGCTTGATTTGACTTCAGTTGCGCTCTATTCTA
B2: PP4 pentaprobe (ssDNA)
DNA: TATCCTACCCATTGGGCTCATCTGATCCATCCGGTCCCGTCCACTCGGCTATGTTATGCTGTATTGCAGTCGTGTCGCGTCGAGCTGCCCTAATCCCACC

Target: Gata1CF (UniProt P17679 249-311)
Test: EMSA; 0.5 and 5 uM protein, 5 nM probe, 10 uM ZnSO4; 10 mM HEPES pH 7.9, 30 mM NaCl, 1 mM MgCl2, 20 uM EDTA, 10 mM DTT, 10 uM ZnSO4, 67 ug/mL acetylated BSA, 4% Ficoll; on ice 30 min
Settings: protein: recombinant; label: 5' FAM

Gata1CF, sequence (P17679 249-311): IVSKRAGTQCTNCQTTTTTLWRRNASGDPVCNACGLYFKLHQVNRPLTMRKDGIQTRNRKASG

| Binder | binding result |
| --- | --- |
| B1 | binds |
| B2 | binds |
